The text below walks through data of the supplement of paper PMC7877785.

± gives the uncertainty stated by the source.

The series in a line: self-splicing fitness, log relative to wild type (ln ratio); higher = more splicing; Tetrahymena group I intron in knt gene, E. coli kanamycin selection, DiMSum; sequences stand for … in CUCUCU…GGAGGGAAAAGUUAUCAGGCAUGCACCUGGUAGCUAGUCUUUAAACCAAUAGAUUGCAUCGGUUUAAAAGGCAAGACCGUCAAAUUGCGGGAAAGGGGUCAACAGCCGUUCAGUACCAAGUCUCAGGGGAAACUUUGAGAUGGCCUUGCAAAGGGUAUGGUAAUAAGCUGACGGACAUGGUCCUAACCACGCAGCCAAGUCCUAAGUCAACAGAUCUUCUGUUGAUAUGGAUGCAGUUCACAGACUAAAUGUCGGUCGGGGAAGAUGUAUUCUUCUCAUAAGAUAUAGUCGGACCUCUCCUUAAUGGGAGCUAGCGGAUGAAGUGAUGCAACACUGGAGCCGCUGGGAACUAAUUUGUAUGCGAAAGUAUAUUGAUUAGUUUUGGAGUACUCGUGGUCG
Summed up:
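A randomised library covering all eight P1ex-region intron nucleotides was built with the intron in the knt kanamycin-resistance gene on pET-22b(+) and held in E. coli BL21(DE3). Cells were grown overnight at 37°C or 30°C on LB agar, with or without 25 μg/mL kanamycin, plus 100 μg/mL carbenicillin, 50 μM IPTG and 0.2% rhamnose, and pooled colonies were amplicon-sequenced on an Illumina HiSeq 2500. DiMSum fitness is the error-weighted combination of wild-type-normalised replicate fold changes, kanamycin versus none.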

For the sequence GUUCAGCAAUAUUACGGAGU, the “self-splicing fitness (ln)” value runs as follows: (30 °C) -1.48 ± 0.12; (37 °C) -0.963 ± 0.15.
The corresponding values for GUUCAGCAAUAUUACGGGAA are -1.16 ± 0.14 and -0.278 ± 0.13.
The matching figures for GUUCAGCAAUAUUACGGGAC: -2.39 ± 0.18 and -1.16 ± 0.19.
GUUCAGCAAUAUUACGGUAU: the “self-splicing fitness (ln)” value (30 °C) was -0.357 ± 0.062 and the “self-splicing fitness (ln)” value (37 °C) worked out at 0.309 ± 0.073.
The matching figures for GUUCAGCAAUAUUACGGUUC: -1.66 ± 0.14 and 0.019 ± 0.18.
For GUUCAGCAAUAUUACGUCAG, the “self-splicing fitness (ln)” value is, setting by setting: (30 °C) -3.88 ± 0.23; (37 °C) -3.07 ± 0.24.
The matching figures for GUUCAGCAAUAUUACGUCUC: -0.362 ± 0.065 and 0.216 ± 0.083.
The corresponding values for GUUCAGCAAUAUUACGUGAC are -1.85 ± 0.11 and -2.22 ± 0.12.
The matching figures for GUUCAGCAAUAUUACGUGUA: -0.88 ± 0.078 and -0.647 ± 0.071.
As for GUUCAGCAAUAUUACGUUGA, the “self-splicing fitness (ln)” value (30 °C) was -3.12 ± 0.28 and the “self-splicing fitness (ln)” value (37 °C) is -1.57 ± 0.17.
Take GUUCAGCAAUAUUACGUUUC: the “self-splicing fitness (ln)” value is, setting by setting: (30 °C) -0.965 ± 0.07; (37 °C) -0.339 ± 0.084.
For the sequence GUUGAGCAAUAUUACGAGAG, the “self-splicing fitness (ln)” value reads like this: (30 °C) -3.95 ± 0.4; (37 °C) -2.63 ± 0.41.
Turning to GUUGAGCAAUAUUACGCAUC, the “self-splicing fitness (ln)” value (30 °C) is -1.26 ± 0.25.
As for GUUGAGCAAUAUUACGCGGU, the “self-splicing fitness (ln)” value is -3.32 ± 0.41 (30 °C) and -2.73 ± 0.34 (37 °C).
Turning to GUUGAGCAAUAUUACGCUAG, the “self-splicing fitness (ln)” value (30 °C) is -3.01 ± 0.44.
Turning to GUUGAGCAAUAUUACGCUGU, the “self-splicing fitness (ln)” value reads like this: (30 °C) -4.02 ± 0.22; (37 °C) -2.15 ± 0.19.
Take GUUGAGCAAUAUUACGGAAC: the “self-splicing fitness (ln)” value (30 °C) was -1.6 ± 0.43.
On to GUUGAGCAAUAUUACGGAGC, for which the “self-splicing fitness (ln)” value runs as follows: (30 °C) -1.01 ± 0.2; (37 °C) -2.82 ± 0.3.
For the sequence GUUGAGCAAUAUUACGGAUC, the “self-splicing fitness (ln)” value was -1.91 ± 0.14 (30 °C) and -1.16 ± 0.14 (37 °C).
As for GUUGAGCAAUAUUACGGCCA, the “self-splicing fitness (ln)” value (37 °C) was -0.675 ± 0.24.
As to GUUGAGCAAUAUUACGGCUA, the “self-splicing fitness (ln)” value reads like this: (30 °C) -0.763 ± 0.18; (37 °C) -0.798 ± 0.19.
Consider GUUGAGCAAUAUUACGGUAG, for which the “self-splicing fitness (ln)” value is, setting by setting: (30 °C) -4.24 ± 0.46; (37 °C) -1.94 ± 0.41.
The corresponding values for GUUGAGCAAUAUUACGGUUU are -4.2 ± 0.33 and -2.73 ± 0.32.
On to GUUGAGCAAUAUUACGUAUU, for which the “self-splicing fitness (ln)” value (30 °C) was -3.74 ± 0.47.
In the case of GUUGAGCAAUAUUACGUCUA, the “self-splicing fitness (ln)” value was -2.72 ± 0.46 (30 °C) and -0.927 ± 0.24 (37 °C).
The corresponding values for GUUGAGCAAUAUUACGUGCG are -3.02 ± 0.21 and -2.07 ± 0.25.
The corresponding values for GUUGAGCAAUAUUACGUGGG are -3.09 ± 0.23 and -1.97 ± 0.18.
For the sequence GUUGAGCAAUAUUACGUGUG, the “self-splicing fitness (ln)” value (30 °C) was -3.65 ± 0.34 and the “self-splicing fitness (ln)” value (37 °C) is -3.15 ± 0.32.
The matching figures for GUUGAGCAAUAUUACGUUCA: -2.3 ± 0.5 and -1.52 ± 0.25.
As to GUUUAGCAAUAUUACGAACG, the “self-splicing fitness (ln)” value runs as follows: (30 °C) -1.78 ± 0.21; (37 °C) -1.03 ± 0.29.
As for GUUUAGCAAUAUUACGACCU, the “self-splicing fitness (ln)” value runs as follows: (30 °C) -1.03 ± 0.11; (37 °C) -0.456 ± 0.14.
The matching figures for GUUUAGCAAUAUUACGACUU: -0.551 ± 0.11 and 0.304 ± 0.14.
GUUUAGCAAUAUUACGAUAC: the “self-splicing fitness (ln)” value was -1.44 ± 0.18 (30 °C) and -0.147 ± 0.28 (37 °C).
The corresponding values for GUUUAGCAAUAUUACGAUCC are -0.72 ± 0.26 and -0.434 ± 0.32.
The matching figures for GUUUAGCAAUAUUACGAUUC: -0.603 ± 0.098 and 0.273 ± 0.14.
The corresponding values for GUUUAGCAAUAUUACGCAAC are -3.59 ± 0.48 and -2.14 ± 0.39.
For GUUUAGCAAUAUUACGCAUG, the “self-splicing fitness (ln)” value is -2.59 ± 0.18 (30 °C) and -0.4 ± 0.18 (37 °C).
Take GUUUAGCAAUAUUACGCCAU: under “30 °C”, the “self-splicing fitness (ln)” value was -1.68 ± 0.4.
For GUUUAGCAAUAUUACGCGAG, the “self-splicing fitness (ln)” value was -1.48 ± 0.17 (30 °C) and -0.934 ± 0.16 (37 °C).
The corresponding values for GUUUAGCAAUAUUACGCGCG are -0.802 ± 0.1 and -0.0312 ± 0.18.
With GUUUAGCAAUAUUACGCGGC, the “self-splicing fitness (ln)” value (30 °C) is -1.26 ± 0.49.
For GUUUAGCAAUAUUACGCGGU, the “self-splicing fitness (ln)” value (30 °C) was -2.3 ± 0.45 and the “self-splicing fitness (ln)” value (37 °C) was -1.95 ± 0.36.
Take GUUUAGCAAUAUUACGGACA: the “self-splicing fitness (ln)” value is -1.68 ± 0.25 (30 °C) and -1.44 ± 0.25 (37 °C).
The corresponding values for GUUUAGCAAUAUUACGGCUU are -1.08 ± 0.13 and -0.894 ± 0.12.
Turning to GUUUAGCAAUAUUACGGGAU, the “self-splicing fitness (ln)” value runs as follows: (30 °C) -2.57 ± 0.14; (37 °C) -1 ± 0.15.
GUUUAGCAAUAUUACGGGGA: the “self-splicing fitness (ln)” value (30 °C) is -3.57 ± 0.37 and the “self-splicing fitness (ln)” value (37 °C) was -1.41 ± 0.22.
For the sequence GUUUAGCAAUAUUACGGUGA, the “self-splicing fitness (ln)” value was -1.84 ± 0.2 (30 °C) and -0.461 ± 0.18 (37 °C).
The matching figures for GUUUAGCAAUAUUACGUAGG: -2.77 ± 0.13 and -0.822 ± 0.14.
Take GUUUAGCAAUAUUACGUAUG: the “self-splicing fitness (ln)” value (30 °C) was -2.29 ± 0.21 and the “self-splicing fitness (ln)” value (37 °C) is -0.712 ± 0.17.
For the sequence GUUUAGCAAUAUUACGUAUU, the “self-splicing fitness (ln)” value was -2.91 ± 0.21 (30 °C) and -1.38 ± 0.17 (37 °C).
As to GUUUAGCAAUAUUACGUCGG, the “self-splicing fitness (ln)” value runs as follows: (30 °C) -2.06 ± 0.18; (37 °C) -2.12 ± 0.21.
On to GUUUAGCAAUAUUACGUUGU, for which the “self-splicing fitness (ln)” value reads like this: (30 °C) -4.02 ± 0.21; (37 °C) -2.17 ± 0.16.
The corresponding values for GUUUAGCAAUAUUACGUUUA are -2.69 ± 0.23 and -0.853 ± 0.17.
Regarding UAAAAGCAAUAUUACGAAAG, the “self-splicing fitness (ln)” value was -2.21 ± 0.17 (30 °C) and -1.56 ± 0.16 (37 °C).
The matching figures for UAAAAGCAAUAUUACGAAGA: -2.44 ± 0.11 and -1.12 ± 0.097.
The matching figures for UAAAAGCAAUAUUACGAAGC: -3.23 ± 0.3 and -3.29 ± 0.46.
The matching figures for UAAAAGCAAUAUUACGAAUA: -0.61 ± 0.11 and -0.627 ± 0.11.
UAAAAGCAAUAUUACGACGU: the “self-splicing fitness (ln)” value reads like this: (30 °C) -0.791 ± 0.13; (37 °C) -0.527 ± 0.12.
As for UAAAAGCAAUAUUACGAUGC, the “self-splicing fitness (ln)” value is, setting by setting: (30 °C) -3.82 ± 0.29; (37 °C) -2.3 ± 0.18.
For UAAAAGCAAUAUUACGAUUG, the “self-splicing fitness (ln)” value was -1.18 ± 0.087 (30 °C) and -0.639 ± 0.11 (37 °C).
Take UAAAAGCAAUAUUACGCAAU: the “self-splicing fitness (ln)” value is -3.58 ± 0.17 (30 °C) and -1.6 ± 0.13 (37 °C).
With UAAAAGCAAUAUUACGCACU, the “self-splicing fitness (ln)” value was -0.274 ± 0.056 (30 °C) and 0.0996 ± 0.068 (37 °C).
